Source: the nanobody polyreactivity screen of Harvey et al. (2022)

experiment: yeast display, Sf9 membrane polyspecificity reagent, FACS + sequencing; frameworks hold sequencing errors
Procedure, shortened: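 After 36–48 hours of galactose induction, yeast (Saccharomyces cerevisiae BJ5465) displaying a synthetic nanobody library were stained at 4 °C for 1 hour with 10% biotinylated, detergent-solubilized Sf9 membrane reagent. Streptavidin microbeads enriched the stained cells before FACS sorting into low and high (top ~1%) gates on anti-HA and streptavidin fluorescence. Each clone's polyreactivity label reflects its gate of origin.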

Sequence | polyreactivity (PSR sort gate)
QVKLVESGGGLVQSGGSLRLSCAASGSILDVNAMGWYRQAPGKERELVAAISDSGGSTYYADSVKGRFTISRDNAKNTVYLQMNSLKPEDTAVYYCATAYYYHGGYYYPYDDYWGQGTQVTVSS | low polyreactivity
QVKLVESGGRLVQAGGSLRLSCAASGFTNYAMGWNRQAPGKERELVAAITLSDASTYYADSVKGRFTISRDNAKNTVYLQMNSLKPEDTAVDYCAAKGGRSKSGARALGYWGQGTHVTVSS | low polyreactivity
QVKLVESVGGLVQAGGSLRLTCAASGIIFPVYAMGRYRQAPGKERQLVSAITYSGDRTYYADSVKGRFTISSDNAKNTVYLQMHSLKPEDTAVYYCNARFGVWPYFYNEDDYWGQGTQVTVSS | low polyreactivity
QVKRVESGGGLVQAGGSLRLSCAASGSIFDEYAMGWYIQAPGKERELVAAITRTGGRTYYADSVKGRFTISRENAKNSVYLQMNSLIPEDTAVYFCNAPSRTRYDYWGQGTQVTVSS | low polyreactivity
QVLLQEIGGGLVQAGGSLRLCCAASGYISGDQFMGWYRQAPGKEPECVAGIGNGTNSNYADSVKGRFTTSRDNAKNTVYLQMNILKPEDTAVYYCAADPSDGSTLAFWGQGTQVTVSS | high polyreactivity
QVLLQESGGCLVQAGGSMRLSCAASGYISSWYPMGWYRQAPGKEREFVATIAPGATTYYADSVKGRFTISRDYAKTTVYLQMNSLKPEDTAVSYCAAGPENNDFYSYWGQGTQVTVSR | low polyreactivity
QVLLQESGGGLVQAGGSLRLCCAASGYISGDQIMGWYRQAPGKDREFVAGIGNGTNTNYADSVKGRFTTSRDNAKNTVYLQMNSLNPEDTAVYYCPADPSDGSTLAYWGQGTQVTVSS | high polyreactivity
QVLLQESGGGLVQAGGSLRLGCAASGTISHAYYMGRYHQAPGKEREFVAAITYGTNTYYADSVKGRFTISRDNAKNTVYLQMNSLKPEDTAVYYCSATAGYNGAHDYWGQGTQVTVSS | low polyreactivity
QVLLQESGGGLVQAGGSLRLSCAASGNIFSAGGMGWYRQAPVNERELVAGIGTGTSTNYADSVKGRFTISRDNSKNTVYLQMNSMKPEDTAVYYCAAAYYSGLSHWYWGQGTQVTVSS | low polyreactivity
QVLLQETGGGLVQAGGSLSLSCAASGTISTDIRMGWYRLAPGKEREFVASIDGCSTTYYADSVKGRFTFSRDNAKNTVYLQMNRLIPEDTSMYYCAAREATEFYLYYWGQGTQVTVSS | low polyreactivity
QVLLVESGGGIVQAGGSLRLSCSASGIIFPCYAMGWYRQAPGKERELLAAISSSGSSTYYADSVMGRFTITRDNAKNTVYLQMNSLKPEDTAVYYCAAVRYGMRRMDYWGQGTQVTVSS | high polyreactivity
QVLLVESGGGLGQAGGSLRLSCAASGAIFVGYAMGWYRQAPGKEREMVAAISKSGGSTYYADSVKGRFTISRDNAKNTVYLQMKSLKPDDTAVYYCAAYPVRLVYSQHRYLYDYWGQGTQVTVSS | high polyreactivity
QVLLVESGGGLVQAGGSLRLICDDSGFIFTYYAMGLYRQAPVTEREFVAAIRASGGSTYYSYSVKGRFTISRDKAQNTVYLQMNSLKPEETAVYYCAARYRQRLRSTSYDYWGQGTQVTVSS | high polyreactivity
QVLLVESGGGLVQAGGSLRLSCAASGRTFVTNAMGWYTQAPGKERELVAGITRRGGSTYYADSVKGRFTISRDNAKNTVYLQMNSLKPEDTAVYYCARRGDTSTRYYYWGQGTQVTVSS | high polyreactivity
QVLLVESGGGLVQAGGSLRLSCAASGRTSFQYAMGWYSQAPGTDRELVAALSWSGGATVYADSVKGRFTISRDNAKNTDYLQMNSLKPEDTAVYYCAKRRRLDQNTCYGLDYWGQGTQGTVSS | low polyreactivity
QVLLVESGGGLVQAGGSLRLSCAASGSTFFFNAMGSSRQAPGKEWELVATISRDGSTNYADSVKGRFTISRDNAKNTVYLQMNSLKPEDTAVYYCAAGWGWPYHQYDYWGQGTQVTVSS | low polyreactivity
QVLLVESGGGLVQAGGSLRLSCAASGSTFSQYAMGWNRQAPGKERELVAAIDSGSNTKYADSVKGRFTISRDHAKNTVYLQMNSLKPEDTAVYYCAADDSYRSIGGDYWGQGTQVTVSS | low polyreactivity
QVLLVESGGGLVQAGGSLRLSWAASGSIFTIYAMGWYRKAPGQERELVAAMNRGDGTNYADSVKGRFTISRDKAKNTVYLQMKSLKPEDTPVYYCAAEYYTEYQKWFDYWGQGTQVTLSS | high polyreactivity
QVLLVESGGGLVQEGGSLRLSCAASGIIFQFYAMGWYRQAPGKERELVAAISRSGGITHYADSVKGRFTISRDNAKNTVYLQMNSLKPEDTAVYYCAAVRQAYPRLDYWGQGTQVTVSS | high polyreactivity
QVLLVESGGGLVQSGRSLRLSCAASGLIFSRYAMGWYRPAPGKERELVAAITSGTSTYYADSVKGRFTISRDNAKNTVYLQLNSLIPEDTAVYYCAARWLTFNARYYPYYYWGQGTQVTVSS | high polyreactivity
QVLLVESGGVLVQAGGSLRLSCAASGSTFWSYAMGWYRQAPGKERELVAAISWSGDSTYYADSVKGRFTISRDNAKNTVYLQMNSLKPEDTAVYYCAADYVGGSYEYEYWGQGTQVTVSS | low polyreactivity
QVLLVESGPGLVQAGGSLRLSCAASGSTLYYYAMGWYRQAPGKERELVAAITWSGDSTYYADSVKGRFTISRYNAKNTVYLQMNSLIPEDTAVYYCASEVESYDQYYTYDYWGQGTQVTVSS | high polyreactivity

Sequence | polyreactivity (PSR sort gate)
QVLLVVSGGGLVQAGGSLRLSCAASGFTFDTYAMGWNRQAPGKERELVAVITRGGSTNYADSVNGRFTISRDNAKNTVYLQMNSLKPEDTALYFCAAEHRNTYTFARDYYWGQGTQVTVSS | high polyreactivity
QVLQQESCGLVQAGCSLRMSCAASGSISTALSMGWYRQAPGKERELVATISDGASTNYADSVKGRFTISRVNAKNTVYLQMNSLKPEDTAVYYFARYYFGNFGWGQGTQVTVSS | high polyreactivity
QVLRVESGGGLVQAGGSLRLSCSASGFIFRPNAMGWYRQAPGKERELVARITYRGGSTYYADSVKGRFTISRDNAKKTVYLQMNSLKPEDTEVYYCAARAVTYAGYTYNYWGQGSQVTVSS | high polyreactivity
QVLVVESGGCLVQAVGSLRLSCAAYGITCSRNALGWYRLAAGKERELVATITSGGSTNYADSVKGRFTISRDNAKNTVYLQMMSLKPEDPAVYFCNAVWNTFISGRSYDYWGQVTQVTVSS | low polyreactivity
QVNHVESGGGLVQAGGSLRLICAASGSTYNNAMGWYRQAPGKERELVAAIRWSGGSTYYADSVKGRFTISRDNANYTVYLQMNSLNPEDTAVYYCASAYRWSRKRYNDYDYWGQGSQVTVSS | high polyreactivity
QVNLVESGGGLVQAGGSLRLSCAASGRIFRKYAMGWYRQAPGKVREFVAAITVSGDRTYYADSVKGRFTISRDNAKNNVYLQMNSLKPEDTAVYYCATKGYYYPYVTYDYWGQGTQVTVSS | low polyreactivity
QVNLVESGGGLVQAGGSLRLSCAASGSIFSKNAMGWYRQAPGRERELVAAITSGASTNYADSVKGRFTISRDNAKNTVYLQMNSLKPEDTAVYYCASKRNGFWYGYWGQGTHVTVSS | low polyreactivity
QVNLVESGGGLVQAGGSLRLSCAASGSIFVGYAMRWYRQAPGKERELVAAISSNSASTYYADSVKGRFTISRDNAKNTLYLQMNSLKPEDTEVYYCATAYRSYWLNDYWGQGTQVTVSS | low polyreactivity
QVPLAETGGGLVQAGGSLRLSCASSGSIYRYAMGWYRKEPGKEREFVAANTWNGGSTYYADSVKGRLTRSLDYAKNTVYLPMNSLKPEDTAVYNCAADWSYFRRHFDYWVQGTQVTVSS | high polyreactivity
QVPLQVSGGYLVQAGGSVRLSCAASGTIYGLTALGWYRQAPGKEREFVAAITDGGNTNYADSVKGRFTISRDNAKNTVYLQMLSLKPEDTAVYYCAVLFSDDAYYAYWGQGTQVTVSS | low polyreactivity
QVPLVESAGGLVQAGGSLRLSCAASGITLYVYAKGWYRQAPGKERELVAAINSGGNTYYADSVKGRFTISRDNAKNTVYLQMNSLKPADTAVYYCAAVYPRQVSHVWRDDYWGQGTQVTVSS | high polyreactivity
QVPLVESGGGLVQAAGSLRLSCAASGRISLGYAMGWYRQAPGKERELVAAISRGGTNTYYADSVKGRFTISRDNAKNTVYLQMNSLKPEDTAVYYCAARYSWGQGTQVTVSS | high polyreactivity
QVPLVESGGGLVQAGGRLRISCAASGITCTFYSMGWYREAPGKESELVAAISRRGGSTYYADSVKGRFTISRDNEKNTVYLHMNSLKPEDTAVYYCAARGYRPMDYWGQGTQVTVSS | high polyreactivity
QVPLVESGGGLVQAGGSLRISCAASGSTFWYYAMGWYRQAPGKEREMVATITSTGTTNYADSVKGRFTISRDTAKNTVYLQMNSLKPEDTAVYYCNARSWSYSYPYLTYYYIAGYWGQGTQVTVSS | low polyreactivity
QVPLVESGGGLVQAGGSLRLSCAASGFIFPNYVMGWYRQEPGKEREFVAGISVRGGRTYYADSVKGRFTISRDNAKNTVYLQMNSLKPEDTAVYYCAADRKASAFNYWGQGTQVTVSS | high polyreactivity
QVPLVESGGGLVQAGGSLRLSCAASGLTFRDNAMGCSRQAPGKERELVAALSTNGGSTYYADSVTGRFTISRDNAKNTVYLQLNSLKPEDTALYVCAKSFLPQYPQVDSDYWGQGTQVTVSS | low polyreactivity
QVPLVESGGGLVQAGGSLRLSCAASGRTFPRYAMGWYRQAPGKERELVATISSGGSTNYADSVKGRFTISLDNAKNTVYLQMNSLKPEDTAVYYCAARYGRTYTRVGYWGQGTQVTVSS | high polyreactivity
QVPLVESGGGLVQAGGSLRLSCAASGSIFTVYAVGWYRQAPGKERELVASIRFSSGRTYYADSVKGRFTISRDNAKNTVYLHMTSLKPEDTAVYYCAAETVSWYRYYYWGQGTQVTVSS | high polyreactivity
QVPLVESGGGLVQSGGSLRLSCAASGSTCSRNAMGWYREAPGKERELVAAINDSGGSTYYADSVKGRFTISRDMAKNTVYLQMNSLKPEDTAVYYCNAVSPYYWDFRYDYWGQGTQVTVSS | high polyreactivity
QVPLVESGVGLVQAGGSLRLSCAASGYTFYSYAMGWYRQAPGKEREFVAAIRTGGGTNYADSVKGRFTISRDNAKNTVYLQMNSLKPEDTAVYYCAARYYSQKSYIGFRPGYEYWGQGTQVTVSS | low polyreactivity
QVQFVESGGGLVQAGGSLRLSCAASGSIFSSYAMGWYRQAPGKERELVAVINSGGSTNYADSVKGRFTISRDNAKNTVYLHMNSLKPEDTAVYYCNAYGGTFHNTAAEFDYWGQGTQVTVSS | low polyreactivity
